Assay results taken from patent US6156546 (Washington State University Research Foundation, dated 2000).

B1: CadF protein of Campylobacter coli M275 (other)
chain: ADNNVKFEITPTLNHNYFEGNLDMDNRYAPGIRLGYHFDDFWLDQLELGLEHYSDVKYTNSTLTTDITRTYLSAIKGIDLGEKFYFYGLAGGGYEDFSKGAFDNKSGGFGHYGAGLKFRLSDSLALRLETRDQISFHDADHSWVSTLGISFGFGAKREKVVAEQVKEVAIEPRVAVPTQSQCPAEPREGAMLDENGCEKTISFEGHFGFDKVDINPAFEEKIKEIAQLLDENARYDTILEGHTDNIGSRAYNQKLSERRAESVAKELEKFGVDKDRIQTVGYGQDKPRSRNETKEGRADNRRVDAKFILR

How the values were obtained:
[1] = biological target: Human plasma fibronectin (human) (UniProt P02751); test: soluble 125I-Fn bound to untreated whole C. jejuni, gamma counting
Human plasma fibronectin = Human plasma fibronectin (human, UniProt P02751-8, 125I-labelled (Iodogen method) or biotinylated (sulfo-NHS-biotin) in the ligand blots and the soluble binding assay; unlabelled when immobilised on coverslips); test: ligand blot with 125I-labeled Fn

Molecule | ng Fn bound [1] [ng] | binding result (Human plasma fibronectin)
C. jejuni whole bacteria (isolate not stated) in the soluble 125I-Fn assay (cells without a defined receptor) | 380 | –
B1 | – | binds
